We go through one substance from article PMC4845099.

The series concerns Cc1cc(=O)oc2cc(NC(=O)CNC(=O)CNC(=O)[C@H](CCCNC(=N)N)NC(=O)[C@H](CC(C)C)NC(=O)[C@H](CCCNC(=N)N)NC(=O)OCc3ccccc3)ccc12. Nature of the series: purified protein, by the assay type. Conditions: pH 7.5.

By Km is commonly meant the substrate concentration at which the rate is half of its maximum. The term kcat/Km denotes the turnover number divided by the Michaelis constant. As for MERS-PLpro (Betacoronavirus England 1), the Michaelis constant (Km) came out at 142 µM and the kcat/Km is 18000 M⁻¹ s⁻¹.
